B1: SPRY1 (parent)
chain: WIHRPGCRCKNSNTVYCKLESCPS

Variants of: B1
Assay: protein stability index of a GFP-peptide fusion (GPS, HEK-293T) (PSI 1-6); higher = more stable
Settings: c terminus: a fixed tail appended
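Further: lentivirally expressed fusions sorted by FACS into six bins by GFP to DsRed ratio, PSI derived from sequencing read proportions per bin multiplied by bin number.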

Variant	protein stability index
L19K	2.46
L19Q	2.59
L19N	3.33
L19I	1.76
L19R	2.73
L19T	2.44
L19A	3
L19P	2.01
L19Y	2.49
L19M	2.37
L19H	1.89
L19C	3.1
L19D	3.51
L19V	2
L19W	2.16
L19F	2.06
L19G	2.68
E20D	2.26
E20R	2.91
E20Y	2.61
E20L	2.06
E20T	2.33
E20K	2.07
E20F	2.37

Variant	protein stability index
E20Q	2.12
E20C	2.41
E20N	2.13
E20S	2.77
E20P	1.92
E20G	2.21
E20V	1.77
E20I	1.5
E20A	1.84
E20M	1.4
E20H	1.78
C17Q	1.71
C17P	2.1
C17K	2.42
C17T	1.65
C17F	2.98
C17D	1.99
C17L	1.58
C17V	3.78
C17S	2.13
C17A	1.44
C17M	2.21
C17H	2.3
C17I	2.46

Variant	protein stability index
C17G	2.81
C17E	2.39
C17Y	1.65
C17N	1.51
Y16L	2.28
Y16W	2.68
Y16P	2.56
Y16I	1.87
Y16E	3.28
Y16M	2.02
Y16D	2.91
Y16N	3.56
Y16F	1.74
Y16Q	2.46
Y16H	2.65
Y16A	3.71
Y16S	2.92
Y16C	2.69
Y16K	2.05
Y16V	2.91
Y16G	2.75
N13W	2.81
N13C	2.1
N13I	1.67

Variant	protein stability index
N13Y	2.73
N13T	2.4
N13G	2.23
N13M	2.74
N13F	2.3
N13P	2.36
N13H	1.91
N13R	1.88
N13Q	2.26
N13V	2.04
N13S	2.06
N13A	1.92
N13K	1.17
N13E	2.64
N13D	3.17
N13L	2.31
S21A	2.13
S21C	1.8
S12C	3.25
S12Q	2.14
S12A	3.15
S12M	2.33
S12K	2.32
S12W	1.73

Variant	protein stability index
S12I	2.4
S12Y	1.97
S12E	2.71
S12G	3.79
S12N	2.12
S12T	2.28
S12H	1.4
S12L	3.01
S12P	1.65
S12D	2.16
S12F	2.1
S12R	2.03
S12V	2.2
T14G	2.8
T14R	1.54
T14E	2.84
T14H	1.99
T14C	2.56
T14F	1.9
T14N	2.78
T14P	1.79
T14M	1.97
T14A	2.89
T14D	3.07

Variant	protein stability index
T14W	1.85
T14L	2.08
T14S	2.59
T14K	1.92
T14V	1.86
T14Q	2.87
T14I	2.6
T14Y	1.84
V15P	3.11
V15A	2.41
V15L	2.34
V15G	2.69
V15H	2.06
V15C	2.42
V15E	2.49
V15I	2.14
V15Y	1.6
V15K	2.18
V15T	3.03
V15F	2.37
V15S	2.35
V15N	2.68
V15M	1.74
V15D	3.14

Variant	protein stability index
V15W	2.92
V15Q	2.65
V15R	2.67
K18P	2.03
K18S	2.28
K18V	1.7
K18F	1.74
K18H	2.1
K18Y	1.73
K18T	2.55
K18D	3.3
K18Q	2.25
K18A	1.91
K18I	1.68
K18R	2.09
K18N	2.66
K18W	1.63
K18L	1.8
K18C	2.72
K18G	2.58
K18M	2.46
N11W	2.6
N11Y	2.07

Reference: the supplement of paper PMC10567573
